Experimental data taken from article PMC4072508, “Genome-Wide Prediction and Validation of Peptides That Bind Human Prosurvival Bcl-2 Proteins” (PLoS Computational Biology, 2014).

Each binder was assayed against Bcl-xL, Q07817 (assay: peptide SPOT array, c-Myc-tagged receptor at 1 uM or 100 nM, anti-c-Myc-Cy3).
Sequence of Bcl-xL, Q07817 (Q07817 1-209): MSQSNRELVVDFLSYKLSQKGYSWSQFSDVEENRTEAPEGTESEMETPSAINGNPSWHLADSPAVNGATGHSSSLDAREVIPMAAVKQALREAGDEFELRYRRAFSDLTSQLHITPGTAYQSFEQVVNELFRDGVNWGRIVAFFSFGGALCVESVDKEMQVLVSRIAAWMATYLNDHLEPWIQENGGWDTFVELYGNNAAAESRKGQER

Row | Binder | SPOT signal as a fraction of Bim BH3's signal on the same receptor and array
1 | AYTMERSARQIMHTAMKYNLGLDLRT [GLUD2] | 0.19
2 | QAEADHLGKELQSVSAKLQAQVEENE [GOLGA6L1] | 0.02
3 | RYRHGAPAEQDRHLADMLTTKWATLQ | 0.71
4 | SSDVIAVCQSLRQMAEKCQQDPESCW [MMS19] | 0.02
5 | AERHKQEADDIVRVAKTANDTSTEAY [LAMC1] | 0.02
6 | SCMATVIHNPDKALGDQFYKEAIEHC [DPF3] | 0.02
7 | RGRTRGWVQTDARMSRRTRGPVERAA [C6orf223] | 0.91
8 | GHDATEDARTILELARYFLKHGPKKI [XXXX] | 0.11
9 | NKQLRKETESLRKIALEAQKKAKVKI | 0.5
10 | SGEFREIGTVIDQIAETLWEQVFSKL [ATL2] | 0.03
11 | DTIFHRAAVRLRDLGGAILRHARRQA [BRPF3] | 0.9
12 | HRTSNVLTLSDKRFANFSGGKITKDV [USP36] | 1.11
13 | AKIIGNNVKKLQKFASTVKMWVFEET [GPD1L] | 0.07
14 | ARELEEISERLEEASGATSAQIEMNK [MYH13] | 0.02
15 | VIKQRRLPDQDSKLADRIQLSGRYYL [RAPGEF2] | 1.24
16 | NKDGKSVSNRDRRLSDNCGGKVLSIT [KIAA0430] | 0.22
17 | HNQLTTVPERLSNCSRSLKNLILKNN [TLR7] | 0.29
18 | LVNIRKDTLRLVKCAEEVKSPGEEAS [RNF157] | 0.03
19 | GFANHDVVEVLRNALQVVHLTLVRRK [INADL] | 0.18
20 | TFETQEDAQKILQEAEKLNYKDKKLN [BOLL] | 0.02
21 | GQISDEVAERLMTIAYESGVNLFDTA [KCNAB1] | 0.02
22 | LAELQQRSDQLLDMSSTFNKTTQNLA [VAMP5] | 0.02
23 | RYRHGAPAEQLRHLLDMLTTKWATLQ | 0.97
24 | SQATGELADLIQQLSEKFGKNLNKDH [TRPC7] | 0.03

More lines, now with the values ahead:

Row | SPOT signal as a fraction of Bim BH3's signal on the same receptor and array | Binder
25 | 0.08 | LGRTGQVCLFDKRGADQHALDQEQRD [ACAP3]
26 | 0.03 | NRQLANMVNNLKEISQEAREGTQGER [TRIM21]
27 | 0.94 | YGRLRPRARSLSKALTAINWLTKKFL [MYO15A]
28 | 0.03 | RLRHDEIITLLKNVGERVVLEVEYEL [GRIP2]
29 | 0.02 | SAKLGKSSSLLTQTSEECNGILTEKM [ZNF396]
30 | 0.87 | KTRADSVANKLGSFSKTLGIKLKKNM [OTUD7A]
31 | 0.06 | IERMIHFGRELQAMSEQLRRDCGKNT [RANBP9]
32 | 0.32 | NKQLRKETESDRKIALEAQKKAKVKI
33 | 0.8 | LREVRESIRFLRQVGRDWVQRRREAL [CYP46A1]
34 | 0.02 | SRELEEISERLEEAGGATSAQIEMNK [MYH2]
35 | 1.44 | YKGHREIARYLLEQGAQVNRRSAKGN
36 | 0.56 | LARIRRRIKWLQDGSQSLFGRLHNDC [VWA3B]
37 | 0.1 | AHGVRDVSKELVGLAEHAATRLRFTK [TMEM151A]
38 | 0.31 | NKQLRKETESLRKILLEAQKKAKVKI
39 | 1.82 | YKGHREIARYDLEQGAQVNRRSAKGN
40 | 0.03 | YEHLRQFCLELNGLAVKLQSECHPDT [MOBKL3]

Row | SPOT signal as a fraction of Bim BH3's signal on the same receptor and array | Binder
41 | 0.17 | DLSSTFVSLALRKVLDWPLSARREKG [TTC31]
42 | 0.05 | KSRLVQQSKADKELADELQERCQRPA [TRIM58]
43 | 0.03 | YIEYLKSSDRLDEAAQRLATVVNDER [XAB2]
44 | 0.04 | KPRMSNTSFVIQHFADKVEYKCEGFL [MYO5C]
45 | 1.05 | NEEGQQFALKDHRLGRTSFRNLKNKR [RIOK2]
46 | 0.03 | ILRHKDIIDDLVKSGHKIMTACSEEE [DST]
47 | 0.26 | AIKSQRMVQNLLSLARKICERVHRSP [ZBED4]
48 | 0.03 | QEQLLTLASILREDGKVFDEKVYYTA [HEBP2]
49 | 0.02 | YRDLPLAAVDLSTAGSQLLSNLDEDY [C15orf27]
50 | 0.06 | LQETTLVANQLREAASRLKWTTNTGP [MAN2B1]
51 | 0.02 | LEKQNNSASDLHEISNEILRIIERTG [GPR112]
52 | 0.03 | EEQLEKLIKKLRKASEGLNSTLKDHI [CCDC76]
53 | 0.03 | FPDARDMVRYLGDFADTLGLRVQYNT [FOXRED2]
54 | 0.03 | ASKLKGAAVKLADFGLAIEVEGEQQA [CAMK2A]
55 | 0.65 | AHKARALARLLRQTALAAFSDFKRLQ [FAM43B]
